The source of these data is paper PMC8258697 (The Journal of Biological Chemistry, 2021).

The labels stand for the following.
B3: biotinylated CBP-1 cofactor peptide (CREB-binding protein coactivator motif 1) (peptide)
peptide: Biotin-NLVPDAASKHKQLSELLRGGSGS
notes: coupled to Tb-streptavidin in the assay; also called CBP-1 peptide; CBP-derived peptide; source: bought: Eurogentec GmbH

Conditions in all cases: both partners purified
In experiment [1] the target is T1, sGFP-PPARγ LBD (human, UniProt P37231-1 234-505).
T1 construct: PPARγ isoform 2 LBD, human, UniProt P37231-1, residues 234-505; also called PPARγ coupled to sGFP; source: E. coli T7 express, coexpressed with GroEL/ES, purified (Ni IMAC, TEV, reverse IMAC, SEC); not shown: His10, N-terminal, cleaved; sGFP, N-terminal, kept
T1 sequence (looked up): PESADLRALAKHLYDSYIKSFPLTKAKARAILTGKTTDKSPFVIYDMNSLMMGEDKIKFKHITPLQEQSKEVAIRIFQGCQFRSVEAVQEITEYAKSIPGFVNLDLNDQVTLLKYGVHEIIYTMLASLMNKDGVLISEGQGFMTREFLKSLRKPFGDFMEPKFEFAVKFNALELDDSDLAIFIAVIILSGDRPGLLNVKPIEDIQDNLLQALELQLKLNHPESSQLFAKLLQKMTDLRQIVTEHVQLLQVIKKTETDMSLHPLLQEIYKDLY
In words: AlphaScreen or HTRF; unlabeled RXRα total mutant LBD titrated (up to 8 μM) against 100 nM sGFP-PPARγ LBD, 12 nM Tb-SA, 12 nM biotinylated CBP-1; no ligand (or SR11237 at ≤1 nM).

Experiment [2] has as its target B3. The experiment is described as above.
Experiment [3] concerns the target T2, label-free PPARγ LBD (human, UniProt P37231-1 234-505).
T2 construct: PPARγ isoform 2 LBD, human, UniProt P37231-1, residues 234-505; also called PPARγ LBD without sGFP-tag; PPARγ LBD devoid of any label; source: E. coli T7 express, coexpressed with GroEL/ES, purified (Ni IMAC, TEV, reverse IMAC, SEC); not shown: His10, N-terminal, cleaved
T2 sequence (looked up): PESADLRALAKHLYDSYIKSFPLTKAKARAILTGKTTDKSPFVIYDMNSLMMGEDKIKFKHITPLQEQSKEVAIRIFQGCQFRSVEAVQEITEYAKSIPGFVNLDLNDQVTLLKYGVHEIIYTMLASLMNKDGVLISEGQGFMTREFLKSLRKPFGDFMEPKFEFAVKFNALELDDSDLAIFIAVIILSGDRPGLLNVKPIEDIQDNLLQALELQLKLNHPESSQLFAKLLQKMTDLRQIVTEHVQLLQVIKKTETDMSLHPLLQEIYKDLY
In words: AlphaScreen or HTRF; heterodimer coactivator recruitment; 100 nM label-free PPARγ LBD, 2 μM sGFP-RXRα LBD total mutant, 12 nM biotinylated CBP-1 on 12 nM Tb-SA; rosiglitazone titrated (also with 50 μM SR11237); 0.1% CHAPS, 1% DMSO, RT.

No end group written: not given here. *: point of attachment. Biotin = O=C1N[C@H]2[C@H](CS[C@H]2CCCCC(=O)*)N1

B1: free RXRα total mutant LBD (unlabeled) (domain or fragment, human, UniProt P19793-1 223-462, looked up)
chain: TSSANEDMPVERILEAELAVEPKTETYVEANMGLNPSSPNDPVTNICQAADKQLFTLTEWAERIPHFSELPLDDQTILLRAGWNELLIASFSHRSIAVKDGILLATGLHVHRNSAHSAGVGAIFDRVLTELVSKMRDMQMDKTELGCLRAIVLFNPDSKGLSNPAEVEALREKVYASLEAYCKHKYPEQPGRFAKLLLRLPALRSIGLKCLEHLFFFKLIGDTPIDTYLMRMLEAPHQMT
notes: retinoid X receptor alpha (RXRα) LBD, human, residues 223-462 (pMal construct), five AF-2 mutations; also called unlabeled recruitment-incapable RXRα LBD (total mutant); unlabeled mutant RXRα LBD; source: E. coli T7 express, coexpressed with GroEL/ES, purified (Ni IMAC, MBP-TEV, amylose flow through, SEC); not shown: MBP, N-terminal, cleaved; His8, N-terminal, cleaved
Consider B1, for which, in experiment [1], the binding result is listed as “binds”.

B2: sGFP-PPARγ LBD:RXRα total mutant LBD (unlabeled) heterodimer (complex, human)
chain 1: PESADLRALAKHLYDSYIKSFPLTKAKARAILTGKTTDKSPFVIYDMNSLMMGEDKIKFKHITPLQEQSKEVAIRIFQGCQFRSVEAVQEITEYAKSIPGFVNLDLNDQVTLLKYGVHEIIYTMLASLMNKDGVLISEGQGFMTREFLKSLRKPFGDFMEPKFEFAVKFNALELDDSDLAIFIAVIILSGDRPGLLNVKPIEDIQDNLLQALELQLKLNHPESSQLFAKLLQKMTDLRQIVTEHVQLLQVIKKTETDMSLHPLLQEIYKDLY
chain 2: TSSANEDMPVERILEAELAVEPKTETYVEANMGLNPSSPNDPVTNICQAADKQLFTLTEWAERIPHFSELPLDDQTILLRAGWNELLIASFSHRSIAVKDGILLATGLHVHRNSAHSAGVGAIFDRVLTELVSKMRDMQMDKTELGCLRAIVLFNPDSKGLSNPAEVEALREKVYASLEAYCKHKYPEQPGRFAKLLLRLPALRSIGLKCLEHLFFFKLIGDTPIDTYLMRMLEAPHQMT
notes: PPARγ isoform 2 LBD, human, UniProt P37231-1, residues 234-505; RXRα LBD, human, residues 223-462, five AF-2 mutations; also called LBD:LBD heterodimer with RXRα; source: mixed from the purified E. coli proteins (100 nM sGFP-PPARγ LBD, RXRα total mutant LBD titrated); not shown: His10, N-terminal, cleaved; sGFP, N-terminal, kept; MBP, N-terminal, cleaved; His8, N-terminal, cleaved
For the molecule B2, the “CBP-1 recruitment relative to that seen with rosiglitazone (%)” value in experiment [2] is ≤ 5%.
Take B3: the binding result in experiment [3] is listed as “binds”.
